# Numbering of substitutions follows the chain as printed. In names and notes the source's numbering stands.
# B1: LEH-P (thermostable limonene epoxide hydrolase) (Rhodococcus erythropolis; A19K/E45K/N92K/S15P/T2A/T76K/T85V/Y96F) (protein)
# chain: MASKIEQPRWASKDPAAGKASTPDEKIVLEFMDALTSNDAAKLIKYFAEDTMYQNMPLPPAYGRDAVEQTLAGLFKVMSIDAVEVFHIGSSKGLVFTERVDVLRALPTGKSYNLSILGVFQLTEGKITGWRDYFDLREFEEAVDLPLRG
# notes: N-terminal hexa-His tag; expressed in E. coli; dimeric
# B2: LEH-P (thermostable limonene epoxide hydrolase) (Rhodococcus erythropolis; A19K/E45K/F139L/I80W/L103V/L35G/M32L/N92K/S15P/T2A/T76K/T85V/Y96F) (protein)
# chain: B1 chain with M32L, L35G, I80W, L103V, F139L
# notes: as for B1
# B3: LEH-P (thermostable limonene epoxide hydrolase) (Rhodococcus erythropolis; A19K/E45K/I116F/L103I/L114M/L35M/M32L/M78I/N92K/S15P/T2A/T76K/T85V/Y96F) (protein)
# chain: B1 chain with M32L, L35M, M78I, L103I, L114M, I116F
# notes: as for B1
# B4: LEH-P (thermostable limonene epoxide hydrolase) (Rhodococcus erythropolis; A19K/E45K/F139L/I116F/L103I/L114M/L35M/M32L/N92K/S15P/T2A/T76K/T85V/Y96F) (protein)
# chain: B1 chain with M32L, L35M, L103I, L114M, I116F, F139L
# notes: as for B1
# B5: LEH-P (thermostable limonene epoxide hydrolase) (Rhodococcus erythropolis; A19K/E45K/F134Y/F139W/L103V/L74I/N92K/S15P/T2A/T76K/T85V/Y96F) (protein)
# chain: B1 chain with L74I, L103V, F134Y, F139W
# notes: as for B1
# B6: LEH-P (thermostable limonene epoxide hydrolase) (Rhodococcus erythropolis; A19K/E45K/F139L/I116V/I80F/L103I/M32A/M78I/N92K/S15P/T2A/T76K/T85V/Y96F) (protein)
# chain: B1 chain with M32A, M78I, I80F, L103I, I116V, F139L
# notes: as for B1
# Tests used:
# Assay in all cases: initial velocities of diol formation, Michaelis-Menten fit
# Assay type in all cases: biochemical, Rhodococcus erythropolis
# Conditions in all cases: buffer and temperature of kinetics not given (activity assays: 50 mM HEPES pH 8, 30 °C)
# [1] = substrate: C[C@@H]1O[C@@H]1C
# Text: (§1) initial velocities of diol formation, Michaelis-Menten fit on LEH-P (thermostable limonene epoxide hydrolase)
# [2] = substrate: C1CC2OC2C1
# Text: as §1
# [3] = substrate: c1ccc([C@H]2O[C@H]2c2ccccc2)cc1
# Text: as §1
# [4] = variant 43A, single measurement, margin from average coefficient of variation
protein,measurement,setting,value
B1,Km,[1],18 ± 1 mM
same,kcat,[1],0.056 ± 0.01 s⁻¹
same,kcat/Km,[1],3.1 M⁻¹ s⁻¹
same,Km,[2],4.2 ± 0.2 mM
same,kcat,[2],0.035 ± 0.004 s⁻¹
same,kcat/Km,[2],7.9 M⁻¹ s⁻¹
same,Km,[3],0.37 ± 0.02 mM
same,kcat,[3],0.147 ± 0.012 s⁻¹
same,kcat/Km,[3],406 M⁻¹ s⁻¹
B2,Km,[3]; variant 60A,0.06 ± 0.01 mM
same,kcat,[3]; variant 60A,0.052 ± 0.006 s⁻¹
same,kcat/Km,[3]; variant 60A,890 M⁻¹ s⁻¹
B3,Km,[3]; variant 52A,0.16 ± 0.03 mM
same,kcat,[3]; variant 52A,0.003 ± 0.001 s⁻¹
same,kcat/Km,[3]; variant 52A,19 M⁻¹ s⁻¹
B4,Km,[3]; variant 41B,0.19 ± 0.02 mM
same,kcat,[3]; variant 41B,0.002 ± 0.001 s⁻¹
same,kcat/Km,[3]; variant 41B,10.5 M⁻¹ s⁻¹
B5,Km,[2]; [4],35 ± 4 mM
same,kcat,[2]; [4],0.017 ± 0.005 s⁻¹
same,kcat/Km,[2]; [4],0.48 M⁻¹ s⁻¹
B6,Km,[2]; variant 24A,3 ± 0.2 mM
same,kcat,[2]; variant 24A,0.005 ± 0.001 s⁻¹
same,kcat/Km,[2]; variant 24A,1.9 M⁻¹ s⁻¹
